The series is described as follows: label from the status in PepcDB records.
With “MKTEARILKECLAAAAPNCLHSILPPVVRDDQTRSMNKPMESYYHQFLEEFRLPLTNPVLVFSLVLFIILLAPIVSKRFNIPGTVGLILSGVLIGPHSLNLLEKSSAVELFSTIGLLYILLIAGLELDVNDFRKNRYKSALFGLLTFSIPIVLGYPVCRYLLNYPMSTSLLTASMFATHTLVAYPVVSRMGISKNRTVAITVAGTILSDTAVLILLAVIIGYSRGDINHEFWLHLVIALTLFSAIVFIVLPAIARWFFTKLENEKHAHYIFVLAALFFSAFLAKAAGLEPIVGAFAAGLALNPLIPGSSALMNRIEFIGNSLFIPFFLISVGMLVDLRIILSSPIALIIAALLTFVALAGKWLAALSTQKIFGYSAAHRRLIFGLSSSRAAATIAIALVGYRARILDLNILNAIIILILVTCIVSSLVTEKAAKEIVLEENDAAPEKEHAQGDADEQILLPIAENKPSERVLELAVMIREKRSLNPLTILTVVPNDHEAELNVKKAKKELAPTVDFAASFDTSLNIVATIDYNICSGISRAVKESQSNLIIFDWPSRQGFLGRMINDATESIVECTCKTTMICHLTRPLAIHRRIVVICPPFAEKEKGFGQWLRKMSRLSQELTIPLLFHCDRKSRLAIIETLKTSHSTSPVLYEVFKNFREWEDIASRKLHFREDDIVTFVCARRESISYKPFFDLVPEQLEKHVKDISKIMIYPEQFDSAIIEEEYADVVAPKSFPFGASTIRKIREEISGFMKKNQLQIRKKARGKTAATPKRFGFSRKEP”, the protein production result is on record as “failed”.

Turning to “MSRAANKLTNTAIKNATTEGKAQRKLADGGGLTLVVKPESKVWWLRYRYDGKERTLTLGAYPQTSLKEARAKRDEAKQLLAEGIDPVTHRATHKTKRVEATANTFKAVATEWLKEVHQKAVVEEHYNRNVRRLEQHAFPKLGRRPISEIEPSDILEPLRDIAKTGRRETAKRVKTLIGQVFRYTVSTGRAQRDMTADIRGILPASETKHHAAVVKPDEIADLLKRIDTYWGTPTVCMALELSPLLFLRPGELRTMKWEQIDWDDATWTTERTKNGEPLVVPLARQSIELLSQIQEVNGKWEWVFPGGHSKTKPMSNNAIRTALTRLELHGIMSAHGFRAMARTVLTERLGFRA”, the protein production entry was “failed”.

Take “MNVLDGAALEIGVPTVRTGIAGDGTLISVSGGSGADATPESDRILGALVLDDTHIDAVAVRRRRRGQGIGTALVEAALDRRDRLTAEFDADVRPFYEQLGFDVELLDDEDGRFRGIRK”: the protein production entry is “failed”.

Regarding “MTDTLFKIMFEGQVRDGVEPETAKANLAGLFKSETAAVQKLFNGEPIALKRGLVHAEAERYIEALKEAGVEARIEPDQAISFNLNEVGNQASPWTPARQAPQDASPYAPPKAQVGSEHYGHSTLKVFTTNGRIGRLRFLAWSMVQCVALVALIALALIVLNWSLVAGGLLIAVLVVVFVTIGVMIGVQRLHDLGWSGWLLLLNLVPFVGSLFPFLIMLLPGTRGANQYGPPPPPNTRGVKVLGIIWIAMIPVISVASIYYSIGKLAEAELALQTDEYEQSLPYDDEQEPGSALNAPADVIEEPQDQNDKQ”, the protein production entry was “failed”.

As for “MSLTSTATDSPLKYYDIGLNLTDPMFHGIYNGKQYHPADYVKLLERAAQRHVKNALVTGSSIAESQSAIELVSSVKDLSPLKLYHTIGVHPCCVNEFADASQGDKASASIDNPSMDEAYNESLYAKVISNPSFAQGKLKELYDLMNQQAKPHDTSFRSIGEIGLDYDRFHYSSKEMQKVFFEEQLKISCLNDKLSSYPLFLHMRSACDDFVQILERFVVGFTDEKDTFQLQKLGASSSSGFYKFHPDRKLVVHSFTGSAIDLQKLLNLSPNIFIGVNGCSLRTEENLAVVKQIPTERLLLETDAPWCEIKRTHASFQYLAKYQEVRDFEYPAFKSVKKNKLADKLNAEELYMVKGRNEPCNMEQVAIVVSEVKDVDLATLIDTTWKTTCKIFGEGHHHHHH”, the protein production result is reported as “not failed”.

For the sequence “MSSLTIILIAAISAVLAFLIIFLLKSILFPKKRARIEKNLKSGKYGAAIKDAKSILSKNPRDSEARYLLGKAYLADKKVDLAFIEFKTLNKTAVFNNPATEIEFRTIIADLYLKFQQPDEALKEFMLLNKRDPKNPKPYFQAGQIYESKNMSDQAIAYFQKAIEVDSRFAEAYASLGLLLFKANQIPEAEKAIATALKLAPDNSETLYYHGKILKSKKNYAQALSALEKAARKQEIRSKCFFERGCCYLETNSLEKAEFEFTRAIKSSKQLSAPEVLYSRYLLADCYERQRNIDQAIEQWEAISAVNPKFRNTAQKLAEYSDLRTNDHMKEYLTLIKEEFFKMCRDITEQYFDYPVQALKETKMGCTILAVEKGSEQWLNTRKKPQLLIFSRDGHTITESFLRSVHEEMKKQAVVTSHIITSGAFSPDAIKFAENRPFNLIDRQKLERIVEKVKFTF”, the protein production result is listed as “failed”.

Take “MGNFMDDQCLLHASALTYSTLLSIVPFFALAFAVLKGLGVQNTLEPFILDQVAAGSHEIVDRIVTYINNTKVGSLGAVGLVTLVVSTVTLLGNIEETFNSIWGVRETRSLYRRFSDYLSVVVFGPILIFAAISVTTTLESQKAVQWLIGTAYLGDVLVAAFRLVPYVSIWLALVFLYMLIPNTKVRFRSALVGGVIAGTLWQAAQWGYIHFQVGVAKYNAIYGTLAVLPVFMIWLYASWSIVLFGVEVVYAHQHRRTFRHETHIPDLEPAARERLALALLLEVCRTFFRDGAPWNAERLAERLDVPERTARETLGMLVAKGWLAESCGEETLYLPARELEHMRVRELIASLRGHAMPLATGRFDPAVEWLAARMEGAVAAELGEVNFRTLAEGGGVD”: the protein production entry is “failed”.

For the sequence “MKQPNYYQDVKQFHQTFHHPGADQPTAIPLDRGVKRATWTAEEAVVEFLHQSSQNETEFLAAIETFKAGLDQAVKKSLKETYPVTEVERLVGQGDALTDALYFIMGSFVEAGLEPGPLFEIVQQANMAKLGPDGQPIFRESDQKVMKPDGWLPPEPQLEAEVVRQMKEKA”, the protein production result is “not failed”.

In the case of “MSVISIILVLIIAFLAGLDGILDQFQFHQPLVSCTLIGLASGHTVAGIMLGGTLQFLALGWANIGAAVAPDVALASTAAAVIMIKGGDFSQKGITIAYGVAVPLAIAGLALTMVVRAISIGIVHGADAAAKNGNIRAVERSHYFALLLQGLRIVFPVALLLALPANHVKSILEAIPSWLSDGMTIGGGMVVAVGYAMILNMMATREVWPFFIIGFVLAAIPDTQITLFGLGMIGVALAMIYIALTNQTGRNSSSGQASSSSNDPIGDILEDY”, the protein production entry is reported as “failed”.

Consider “MANAVVAIAGSSGLIGSALTAALRAADHTVLRIVRRAPANSEELHWNPESGEFDPHALTDVDAVVNLCGVNIAQRRWSGAFKQSLRDSRITPTEVLSAAVADAGVATLINASAVGYYGNTKDRVVDENDSAGTGFLAQLCVDWETATRPAQQSGARVVLARTGVVLSPAGGMLRRMRPLFSVGLGARLGSGRQYMSWISLEDEVRALQFAIAQPNLSGPVNLTGPAPVTNAEFTTAFGRAVNRPTPLMLPSVAVRAAFGEFADEGLLIGQRAIPSALERAGFQFHHNTIGEALGYATTRPG”, for which the protein production result is given as “failed”.

“MLDPILLLGLVVAVLAMSLVAQALSSYFRIPFIIFLLIEGIIAGPEVLNLLNPALYVDGLSTIVAISVSVIVFDGGLHIDLKHIRMVQESVLKLTTIGVFVTFLGTTVLTSLLIEIPLELAALFGALVTATGPTVITPIVRNIQISHKLGKILELEGVLNDAASVILAAMVFEWVAAELSGTDAVVFILYRLGIGIALGSLSGFALRWFFTRGKAISNRTARLVSLTAVFSCFVFSEYLGNESGILAVAIFGIILGTSDFPYKDTIKEFKSDIVIVMLSLIFILLAAMIKFEYILRIGASGVALVLLLIFVIRPFAVFVSMWNSQIGTNEKLFISFVGPRGVVPTAVATYFAIKLDSMGIPGGQTLVGLVFLTVIITVFMSGSLSKKVAEVLEVIPMEILIIGGGKVGRILAERFDKRGENVVVVDISEDNCKKCMELGIRTVQGDAGDVNVLKKAGIENAKYVVATTNQDNTNLLFCQLAKASFGFRGDQLVARVNEIENLQAFWNLGIRSMSPAMTTAVVLDNMIGRPHLFSMCEVGGEGEMMEVKVTNPRVIGKAIKDIQFPEKSLLVMVQRGSDSIIAHGNLVLEYEDIVTVIGEGDAAKQTAAILHK”: the protein production entry is on record as “failed”.

As for “AIAEEDEFIGEKTFQRYCAEFIKHSQQIGDSWEWRPSKDCSDGYMCKIHFQIKNGSVMSHLGASTHGQTCLPMEEAFELPLDDCEVIETAAASEVIKYEYHVLYSCSYQVPVLYFRASFLDGRPLTLKDIWEGVHECYKMRLLQGPWDTITQQEHPILGQPFFVLHPCKTNEFMTPVLKNSQKINKNVNYITSWLSIVGPVVGLNLPLSYAKATSQDERNVP”, the protein production entry is on record as “failed”.

With “MEYYNLILYLLVFGADMLIILQTYNEIKMWKTVKGNFVGKVSIIVPIKGIDTRLERNIESLLSQDYPYPYEVIYVVEKGDEVENILKKYNVKIVYSDFNCDSCSGKIRAQISGLLRASNDIIVFADSDTWYPRYWLRNLISPLDKYDTTTTFSWPFPSRITLSNLIRAGFWTLGFESQSLQSSRFLWGGSMALRREFFDNEVLDELSKEWCDDCTLTRIIKRRGGKIGFVMSAIPLNVYDENSLISWSSRQIITILAYSPRGARAYLVAGTFFALILIYSLVYLNIVTFTPYILWIVKNVIRGVKYPKQALIASLMTILAIPYALFLLVFNWNRREVYWRGKRYIVKPLREK”, the protein production entry is listed as “failed”.

Consider “MLFIKPADLREIVTFPLFSDLVQCGFPSPAADYVEQRIDLNQLLIQHPSATYFVKASGDSMIDGGISDGDLLIVDSAITASHGDIVIAAVDGEFTVKKLQLRPTVQLIPMNSAYSPITISSEDTLDVFGVVIHVVKAMR”, for which the protein production entry is “failed”.

In the case of “MKTTRTCKINSITKEQTEALITLIRTFESAKRYSFNRLIEGESEKELIKKLQLKYLLNKRFCEDAVLQVQTILSSQKELLPVYLENNQKKLEKTLQKKMIMKVAGKTQKKFH”, the protein production entry was “failed”.

Take “MKGLCSSDTRQYLPGHQLWEAPVQIRRYSAVIHHATKCQWGVIPSRTINVSLHQTRRMRVAAVGIGGAGGRIVERLWQDNERRETTYLGAACAVDTDTEALDELDALPADRRYAFGLSETNGTGTNGDRTSGTAAIEDERLEVRRAIDELVTSDIDAVVLVAGLAGGTGSGATAHIADALREVYSIPVYCLSVLPAGRDDDAAANTMQALRALESTVDGQILFDNEAWLGSGQTVESASETLNETIVARLGALFAAGEATAPDAVGQSVVDASEIINTLSDAGFTTLGYASQDLQTGAGSGDGTVIDQLKNRFLGDNADDVDEIEAYNAVETTLRRAVRGKLTAQCELDSADRALAVFAGPPAWLIRDAVTDGRRWLTEELQSPLEHHHHHH”: the protein production result is on record as “failed”.

Take “MRTDFNVFTTGGAPMKQIIRQFSIGTVAYAIMQVASAQVAITNVVPMNIPGQGTEIRVMFNGLPPQPQAYQLEQPARLILDFDKAGQKLAKSLIPVTTNEASSIDVSSDDKRARVVVNLKDAGAFTTRVEGNVFILKINNIQSTATPVATSAPAPQQGIGNIGFQRGAQGEGLVVIDLQGTNTPVDVQQQGSKVVVRFPGIKIPTHLARRLNTTDFATPVASIDSYNDGSNGVISIQSTGSYEYMAYQAENKLTISLKRPQDNVRLNSKNNQNYTGKKISLDFQDIEVRRVLQLLADFTNINMVTADSVQGNITLHLKDVPWDQALDIILKTKNLDKRRNGNVIWIAPVSELIKSEEDEAKAIAQSTKLAPLQTEYILLKYAKAADIEKLITQGRNSGTSNSNTNGSATVEPLGDSVGTLLSPRGTISLDPRTNTLIINDTSQKIDQIRKMIDLLDIPVKQVMIEARIVRATTSFSKEMGVKWGILSQGINQNSNLLVGGSETTLWNLRNPDSNGTYTIERPDNLNVDLGVTTTGASSIAFGLISLSDFMLDLELSALQADGYGEVISTPKVMSADKQKAKVATGVEVPYQSTTNSAAGSTATTSFKEALLSLEVTPNITPDGKILMELNIANDSINSYAQNGEAILNKNTINTNVLVNNGETVVLGGVFEQTTNNAVTKVPFLGDLPYVGRLFKKTAKSEAKNELLIFVTPRIVNDTIVGNH”: the protein production entry was “failed”.

The values above are taken from a protein production outcome set (Wang et al. 2014).
